The test has as its target human EpCAM immobilized with paraformaldehyde (on PFA-treated MCF-7 or PC-3 cells) (human) (UniProt P16422). The test can be described thus: liquid-phase ELISA on PC-3 cells in suspension, PFA-treated against untreated. Background: An ELISA detects its analyte on a solid surface through an enzyme-linked reagent.
UniProt P16422, sequence (P16422 24-314 limits assumed): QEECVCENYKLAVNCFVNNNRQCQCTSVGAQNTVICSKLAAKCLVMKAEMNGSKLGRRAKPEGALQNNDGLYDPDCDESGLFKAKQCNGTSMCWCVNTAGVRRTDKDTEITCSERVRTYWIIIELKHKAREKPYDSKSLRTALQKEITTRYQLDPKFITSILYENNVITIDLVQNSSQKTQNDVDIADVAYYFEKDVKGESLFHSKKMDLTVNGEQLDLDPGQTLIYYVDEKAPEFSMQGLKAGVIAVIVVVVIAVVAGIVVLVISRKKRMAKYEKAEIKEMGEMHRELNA

On to HEA-125 anti-EpCAM monoclonal antibody, for which the fold change of ELISA signal after 4% PFA treatment is < 1.5 fold.
